# Data from patent US20170037136A1 (Janssen / Centocor, published 2017).
# Residue numbers refer to the chain shown, from its start. Numbers in names are those of the source.
# T1: shCD154-his (soluble human CD154, His6 fusion) (human, UniProt P29965 113-261)
# T1 construct: predominantly trimer
# T1 sequence: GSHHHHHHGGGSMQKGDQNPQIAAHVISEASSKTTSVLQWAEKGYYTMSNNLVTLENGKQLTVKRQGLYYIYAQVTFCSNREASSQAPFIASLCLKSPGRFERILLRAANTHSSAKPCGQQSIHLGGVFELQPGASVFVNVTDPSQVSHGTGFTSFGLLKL
# T2: human CD154 endogenously expressed on D1.1 Jurkat cells (human, UniProt P29965 1-261)
# T2 sequence: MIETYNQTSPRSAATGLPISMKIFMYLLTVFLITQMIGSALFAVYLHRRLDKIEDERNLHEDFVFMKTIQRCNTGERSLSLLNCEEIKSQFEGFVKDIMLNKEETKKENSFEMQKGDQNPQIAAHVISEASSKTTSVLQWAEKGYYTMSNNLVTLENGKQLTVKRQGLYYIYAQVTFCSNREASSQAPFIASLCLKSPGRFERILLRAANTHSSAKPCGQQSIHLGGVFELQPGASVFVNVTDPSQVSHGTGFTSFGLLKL
# B1: C4LB5 (antibody, V domains shown)
# VH: QVQLVQSGAEVKKPGSSVKVSCKASGGTFSSYAISWVRQAPGQGLEWMGGIIPIFGTANYAQKFQGRVTITADESTSTAYMELSSLRSEDTAVYYCARGASVWDGPAEVFDYWGQGTLVTVSS
# VL: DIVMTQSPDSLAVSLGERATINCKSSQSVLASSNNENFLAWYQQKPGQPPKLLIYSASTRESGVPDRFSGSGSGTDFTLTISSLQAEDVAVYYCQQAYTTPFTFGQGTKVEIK
# notes: Phage-derived; IgG2sigma effector silent mAb (V234A, G237A, P238S, H268A, V309L, A330S, P331S), kappa; also called VH C4LH12; VL C4LL8
# B2: C4LB237 (antibody, V domains shown)
# VH: QVQLVQSGAEVKKPGSSVKVSCKASGGTFSSYGISWVRQAPGQGLEWMGWISPIFGNTNYAQKFQGRVTITADESTSTAYMELSSLRSEDTAVYYCARSRYYGDLDYWGQGTLVTVSS
# VL: DIQMTQSPSSLSASVGDRVTITCRASQSISSYLNWYQQKPGKAPKLLIYYANSLQSGVPSRFSGSGSGTDFTLTISSLQPEDFATYYCQQSDSIPWTFGQGTKVEIK
# notes: C4LB89 variable regions cloned as wild-type IgG1/kappa; also called C4LBB237
# B3: C4LB89 (antibody, human IgG2, kappa)
# heavy: QVQLVQSGAEVKKPGSSVKVSCKASGGTFSSYGISWVRQAPGQGLEWMGWISPIFGNTNYAQKFQGRVTITADESTSTAYMELSSLRSEDTAVYYCARSRYYGDLDYWGQGTLVTVSSASTKGPSVFPLAPCSRSTSESTAALGCLVKDYFPEPVTVSWNSGALTSGVHTFPAVLQSSGLYSLSSVVTVPSSNFGTQTYTCNVDHKPSNTKVDKTVERKCCVECPPCPAPPAAASSVFLFPPKPKDTLMISRTPEVTCVVVDVSAEDPEVQFNWYVDGVEVHNAKTKPREEQFNSTFRVVSVLTVLHQDWLNGKEYKCKVSNKGLPSSIEKTISKTKGQPREPQVYTLPPSREEMTKNQVSLTCLVKGFYPSDIAVEWESNGQPENNYKTTPPMLDSDGSFFLYSKLTVDKSRWQQGNVFSCSVMHEALHNHYTQKSLSLSPGK
# light: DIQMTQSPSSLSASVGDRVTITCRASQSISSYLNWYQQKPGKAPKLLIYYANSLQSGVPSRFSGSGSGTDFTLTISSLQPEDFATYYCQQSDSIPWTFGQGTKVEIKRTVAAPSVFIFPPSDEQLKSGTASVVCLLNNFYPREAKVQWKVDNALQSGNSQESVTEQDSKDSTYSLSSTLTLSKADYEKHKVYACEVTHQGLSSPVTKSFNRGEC
# notes: IgG2sigma/kappa; also called VH C4LH165; VL C4LL49
# B4: C4LB94 (antibody, V domains shown)
# VH: QVQLVQSGAEVKKPGSSVKVSCKASGGTFSSYAISWVRQAPGQGLEWMGGISPYFGNTNYAQKFQGRVTITADESTSTAYMELSSLRSEDTAVYYCARDTGWVGAFYLDYWGQGTLVTVSS
# VL: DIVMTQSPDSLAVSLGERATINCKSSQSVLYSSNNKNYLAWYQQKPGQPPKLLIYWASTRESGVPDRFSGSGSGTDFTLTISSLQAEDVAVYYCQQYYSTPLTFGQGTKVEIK
# notes: IgG2sigma, kappa; also called VH C4LH99; VL PH9L2
# B5: C4LB150 (antibody, V domains shown)
# VH: QLQLQESGPGLVKPSETLSLTCTVSGGSISSYSFYWGWIRQPPGQGLEWIGSLYYSGSTYYNPSLKSRATMSVVTSKTQFSLNLNSVTAADTAVYYCARLQLGTTTDYFDHWGQGTLVTVSS
# VL: SYELTQPPSVSVSPGQTASITCSGDELGDKFACWYQQKPGQSPVLVIWQENKRPSGIPERFSGSNSGNTATLTISGTQAMDEADYYCQAWDSDTAVFGGGTKLTVL
# notes: IgG2sigma effector silent mAb; lambda VL (OmniRat antibodies were cloned as IgG2sigma/lambda); also called VH C4LH201; VL C4LL82
# B6: C4LB189 (antibody, V domains shown)
# VH: QVQLVQSGAEVKKPGASVKVSCKASGYTFAAYYIHWVRQAPGQGLEWMGRINPDSGGTDYAQRFQGRVTMTRDTSISTAYMELSRLRSDDTAVFYCARDWNYYDGSGYFGPGYYGLDVWGQGTTVTVSS
# VL: SYELTQPPSVSVSPGQTASVTCSGDKLGDKYVCWYQRKPGQSPVLVIYQDRKRPSGIPERFSGSNSGNTATLTISGTQAIDEADYYCQAWDSGTVVFGRGTKLTVL
# notes: IgG2sigma effector silent mAb; lambda VL; also called VH C4LH240; VL C4LL116
# B7: C4LB199 (antibody, V domains shown)
# VH: QVQLQESGPGLVKPSETLSLTCTVSGDSISSFIYYWGWIRQPPGKGLDWVGCIYSSGGTYYNPSLKSRVTISVDTSKNQFSLKLPSVTAADTAVYYCARLWLGTTTDYFDYWGQGTLVTVSS
# VL: B5 VL with A18V, E26K, L45V, W48Y, E50D, N51D, N65T, D93N, A95V
# notes: IgG2sigma effector silent mAb; lambda VL; also called VH C4LH250; VL C4LL125
# B8: C4LB191 (antibody, V domains shown)
# VH: QVQLVQSGAEVKKPGASMKVSCKASGYTFTDYYIHWVRQAPGQGLEWVGRFNPNSGDTNGAQKFQGRVTMTRDTSISTAYMELTRLRSDDTAVYHCAREGELAGIFFDYWGQGTLVTVSS
# VL: B6 VL with V20I, C33S, Y35N, Q36H, R37Q, I80M, G93S, R99G
# notes: IgG2sigma effector silent mAb; lambda VL; also called VH C4LH242; VL IAPL39
# B9: C4LB83 (antibody, V domains shown)
# VH: QVQLVQSGAEVKKPGSSVKVSCKASGGTFSSYAISWVRQAPGQGLEWMGWIIPIFGNTNYAQKFQGRVTITADESTSTAYMELSSLRSEDTAVYYCAREKDFRGYTKLDYWGQGTLVTVSS
# VL: B2 VL with S30N, S31N, Y32W, Y50A, N52S, D92F, I94F, W96Y
# notes: IgG2sigma
# B10: C4LB119 (antibody, V domains shown)
# VH: QVQLVQSGAEVKKPGSSVKVSCKASGGTFSSYYISWVRQAPGQGLEWMGAIDPYFGYANYAQKFQGRVTITADESTSTAYMELSSLRSEDTAVYYCARTGLNYGGFDYWGQGTLVTVSS
# VL: EIVLTQSPATLSLSPGERATLSCRASQSVSSYLAWYQQKPGQAPRLLIYDASNRATGIPARFSGSGSGTDFTLTISSLEPEDFAVYYCQQRSNWPLTFGQGTKVEIK
# notes: IgG2sigma
# What was measured:
# [1] = target: T1, shCD154-his (soluble human CD154, His6 …); test: SPR (ProteOn XPR36), antibody captured via anti-human IgG Fc, shCD154-his analyte, 25 C, 1:1 Langmuir model
# Protocol: (§1) Affinity measurements using Surface Plasmon Resonance (SPR) were performed using a ProteOn XPR36 system (BioRad). […] Approximately 4700 RU (response units) of test antibodies were immobilized. The kinetic experiments were performed at 25° C. in running buffer (DPBS+0.03% polysorbate P20+100 μg/ml BSA). […] The association phase was monitored for 3 minutes at 50 μL/min followed by 15 minutes of buffer flow (dissociation phase). The chip surface was regenerated with two 18 second pulses of 100 mM H₃PO₄ (Sigma, Cat#7961) at 100 μL/min.
# (§2) The collected data were processed using ProteOn Manager software. First, the data was corrected for background using inter-spots. Then, double reference subtraction of the data was performed by using the buffer injection for analyte injections. The kinetic analysis of the data was performed using a Langmuir 1:1 binding model.
# (§3) Affinity measurements were done using ProteOn as described in Example 1.
# [2] = target: T3, shCD154-ILZ (soluble human CD154, leucine zipper fusion) (human); test: cell-based or functional assay
# [3] = target: T2, human CD154 endogenously expressed on …; test: cell-based or functional assay
# [4] = target: T3, shCD154-ILZ (soluble human CD154, …); test: cell-based or functional assay; remark: listed apart in the source
# [5] = target: T1, shCD154-his (soluble human CD154, His6 …); test: cell-based or functional assay
# [6] = target: T1, shCD154-his (soluble human CD154, His6 …); test: SPR (ProteOn XPR36) as in Example 1, human CD154; mean ± SD, n = 4
# Protocol: as §1, §2
# [7] = target: T1, shCD154-his (soluble human CD154, His6 …); test: SPR (ProteOn XPR36), antibody captured via anti-human IgG Fc, shCD154-his analyte, 25 C, two-states binding model
# Protocol: as §1, §3
# [8] = target: T1, shCD154-his (soluble human CD154, His6 …); test: SPR (ProteOn XPR36), protocols of Example 1; analyte not given
# Protocol: as §1, §2
Binder,Kd [1],koff [1],kon [1],NF-κB SEAP reporter gene assay; IC50 (nM); D1.1 Jurkat [3],NF-κB SEAP reporter gene assay; IC50 (nM); shCD154-ILZ [4],also measured
B1,0.312 nM,0.000178 s⁻¹,570000 M⁻¹ s⁻¹,1.55 nM,0.54 nM,B cell activation assay; IC50 (nM); shCD154-ILZ/cyno B cell [2]: 5.35 nM; B cell activation assay; IC50 (nM); shCD154-ILZ/human B cells [2]: 2.74 nM
B2,,,,,,NF-κB SEAP reporter gene assay; IC50 [5]: 2.56 nM; Kd [6]: 0.0236 nM; koff [6]: 6.05e-05 s⁻¹; kon [6]: 2.59e+06 M⁻¹ s⁻¹
B3,0.235 nM,0.00038 s⁻¹,1.61e+06 M⁻¹ s⁻¹,,,NF-κB SEAP reporter gene assay; IC50 [5]: 6.22 nM
B4,,,,0.13 nM,4.37 nM,Kd [7]: 2.09 nM; koff [7]: 0.00329 s⁻¹; kon [7]: 1.58e+06 M⁻¹ s⁻¹
B5,,,,3.57 nM,4.95 nM,Kd [7]: 2.72 nM; koff [7]: 0.00617 s⁻¹; kon [7]: 2.27e+06 M⁻¹ s⁻¹
B6,0.581 nM,0.000206 s⁻¹,355000 M⁻¹ s⁻¹,2.06 nM,1.63 nM,
B7,0.253 nM,0.000404 s⁻¹,1.6e+06 M⁻¹ s⁻¹,1.21 nM,1.09 nM,
B8,0.0313 nM,0.000176 s⁻¹,5.62e+06 M⁻¹ s⁻¹,,,
B9,,,,,,Kd [8]: 2.23 nM; koff [8]: 0.0047 s⁻¹; kon [8]: 2.1e+06 M⁻¹ s⁻¹
B10,,,,,,Kd [8]: 4.79 nM; koff [8]: 0.0088 s⁻¹; kon [8]: 1.84e+06 M⁻¹ s⁻¹
